Earlier results as cited in PMC3758474.

What was measured:
Grb7 SH2 (Homo sapiens) = Grb7 SH2 (Homo sapiens) (UniProt Q14451)
[1] = target: erbB2 pY1139 peptide pY1139 peptide (Homo sapiens) (UniProt P04626); assay: ITC

In the case of Grb7 SH2 (from UniProt Q14451), the Kd (Grb7 SH2 (Homo sapiens)) is listed as 11 µM and the Kd [1] is listed as 2280 nM.
